Numbering of substitutions follows the chain as printed. Numbers in names are those of the source.
B1: Spy (WT Spy), ATP-independent periplasmic chaperone (natural protein, Escherichia coli, UniProt P77754 24-161, looked up)
chain: ADTTTAAPADAKPMMHHKGKFGPHQDMMFKDLNLTDAQKQQIREIMKGQRDQMKRPPLEERRAMHDIIASDTFDKVKAEAQIAKMEEQRKANMLAHMETQNKIYNILTPEQKKQFNANFEKRLTERPAAKGKMPATAE
B2: Im7-L18A L19A L37A (mimic of unfolded Im7, Im7U) (natural protein, UniProt Q03708 1-87, looked up)
chain: MELKNSISDYTEAEFVQAAKEIEKENVAATDDVLDVALEHFVKITEHPDGTDLIYYPSDNRDDSPEGIVKEIKEWRAANGKPGFKQG
B3: Im7-L53A I54A (mimic of the Im7 folding intermediate, Im7I) (natural protein, UniProt Q03708 1-87, looked up)
chain: B2 chain with A18L, A19L, A37L, L53A, I54A
B4: Immunity protein 7, wild type (Im7-WT) (natural protein, UniProt Q03708 1-87, looked up)
chain: B2 chain with A18L, A19L, A37L

Assays:
[1] = molecular target: B3; test: ITC
[2] = molecular target: B4; test: ITC
[3] = molecular target: B2; test: ITC
[4] = molecular target: B1; test: stopped-flow fluorescence
[5] = molecular target: B1; test: ITC

B1 was tested. Which “stoichiometry N” value [1] did it give?
Its value is 1 Spy dimer per Im7.

And the “stoichiometry N” value [2]?
Its value is 1 Spy dimer per Im7.

And the “stoichiometry N” value [3]?
Its value is 1 Spy dimer per Im7.

What does the source list for B2?
koff [4]: 210 s⁻¹; kon [4]: 1.3e+07 M⁻¹ s⁻¹; Kd [5]: 10.4 µM

Which Kd [5] does the source give for B3 here?
Its Kd is 3.5 µM.

For B4, which Kd [5] is on record?
Its Kd is 20.5 µM.

From article PMC4847750 (Nature structural & molecular biology, 2015)
